{"source": "patent US20200283478A1", "about": "(Genentech, published 2020)", "binders": {"B1": {"name": "Compound 22 (Ac-GSG-CWNLKRIGSQGC-NH2) (peptide)", "peptide": "Ac-GSGCWNLKRIGSQGC-NH2", "modifications": "disulfide 4-15", "SMILES": "CC[C@H](C)[C@@H]1NC(=O)[C@H](CCCNC(=N)N)NC(=O)[C@H](CCCCN)NC(=O)[C@H](CC(C)C)NC(=O)[C@H](CC(N)=O)NC(=O)[C@H](Cc2c[nH]c3ccccc23)NC(=O)[C@@H](NC(=O)CNC(=O)[C@H](CO)NC(=O)CNC(C)=O)CSSC[C@@H](C(N)=O)NC(=O)CNC(=O)[C@H](CCC(N)=O)NC(=O)[C@H](CO)NC(=O)CNC1=O"}, "B2": {"name": "Compound 36 (Ac-SG-CFIPWNLQ(Cit)IGLPC-NH2) (peptide)", "peptide": "Ac-SGCFIPWNLQ[Cit]IGLPC-NH2", "modifications": "disulfide 3-16", "SMILES": "CC[C@H](C)[C@@H]1NC(=O)[C@H](CCCNC(N)=O)NC(=O)[C@H](CCC(N)=O)NC(=O)[C@H](CC(C)C)NC(=O)[C@H](CC(N)=O)NC(=O)[C@H](Cc2c[nH]c3ccccc23)NC(=O)[C@@H]2CCCN2C(=O)[C@H]([C@@H](C)CC)NC(=O)[C@H](Cc2ccccc2)NC(=O)[C@@H](NC(=O)CNC(=O)[C@H](CO)NC(C)=O)CSSC[C@@H](C(N)=O)NC(=O)[C@@H]2CCCN2C(=O)[C@H](CC(C)C)NC(=O)CNC1=O"}, "B3": {"name": "Compound 64 (Ac-DCLWNLKRIGSQCEY-NH2) (peptide)", "peptide": "Ac-DCLWNLKRIGSQCEY-NH2", "modifications": "disulfide 2-13", "SMILES": "CC[C@H](C)[C@@H]1NC(=O)[C@H](CCCNC(=N)N)NC(=O)[C@H](CCCCN)NC(=O)[C@H](CC(C)C)NC(=O)[C@H](CC(N)=O)NC(=O)[C@H](Cc2c[nH]c3ccccc23)NC(=O)[C@H](CC(C)C)NC(=O)[C@@H](NC(=O)[C@H](CC(=O)O)NC(C)=O)CSSC[C@@H](C(=O)N[C@@H](CCC(=O)O)C(=O)N[C@@H](Cc2ccc(O)cc2)C(N)=O)NC(=O)[C@H](CCC(N)=O)NC(=O)[C@H](CO)NC(=O)CNC1=O"}, "B4": {"name": "Compound 115 (Ac-CRLPWNLQRI-(Ape)-C-NH2) (peptide)", "peptide": "Ac-CRLPWNLQRI[Ava]C-NH2", "modifications": "disulfide 1-12", "SMILES": "CC[C@H](C)[C@@H]1NC(=O)[C@H](CCCNC(=N)N)NC(=O)[C@H](CCC(N)=O)NC(=O)[C@H](CC(C)C)NC(=O)[C@H](CC(N)=O)NC(=O)[C@H](Cc2c[nH]c3ccccc23)NC(=O)[C@@H]2CCCN2C(=O)[C@H](CC(C)C)NC(=O)[C@H](CCCNC(=N)N)NC(=O)[C@@H](NC(C)=O)CSSC[C@@H](C(N)=O)NC(=O)CCCCNC1=O"}, "B5": {"name": "Compound 21 (Ac-CWNLKRIGSQGC-NH2) (peptide)", "peptide": "Ac-CWNLKRIGSQGC-NH2", "modifications": "disulfide 1-12", "SMILES": "CC[C@H](C)[C@@H]1NC(=O)[C@H](CCCNC(=N)N)NC(=O)[C@H](CCCCN)NC(=O)[C@H](CC(C)C)NC(=O)[C@H](CC(N)=O)NC(=O)[C@H](Cc2c[nH]c3ccccc23)NC(=O)[C@@H](NC(C)=O)CSSC[C@@H](C(N)=O)NC(=O)CNC(=O)[C@H](CCC(N)=O)NC(=O)[C@H](CO)NC(=O)CNC1=O"}, "B6": {"name": "Compound 86 (Ac-CRLPWNLQR-(Aoc)-C-NH2) (peptide)", "peptide": "Ac-CRLPWNLQR[Aoc]C-NH2", "modifications": "disulfide 1-11", "SMILES": "CC(=O)N[C@H]1CSSC[C@@H](C(N)=O)NC(=O)CCCCCCCNC(=O)[C@H](CCCNC(=N)N)NC(=O)[C@H](CCC(N)=O)NC(=O)[C@H](CC(C)C)NC(=O)[C@H](CC(N)=O)NC(=O)[C@H](Cc2c[nH]c3ccccc23)NC(=O)[C@@H]2CCCN2C(=O)[C@H](CC(C)C)NC(=O)[C@H](CCCNC(=N)N)NC1=O"}}, "target": "T1, His-tagged, full-length PCSK9 (human, UniProt Q8NBP7 31-692)", "T1 construct": "secreted PCSK9 is autocatalytically cleaved into prodomain and catalytic domain + CRD (from S153), which stay associated; also called His-PCSK9; proprotein convertase subtilisin/kexin type 9; not shown: His tag", "T1 sequence (Q8NBP7 31-692 limits assumed)": "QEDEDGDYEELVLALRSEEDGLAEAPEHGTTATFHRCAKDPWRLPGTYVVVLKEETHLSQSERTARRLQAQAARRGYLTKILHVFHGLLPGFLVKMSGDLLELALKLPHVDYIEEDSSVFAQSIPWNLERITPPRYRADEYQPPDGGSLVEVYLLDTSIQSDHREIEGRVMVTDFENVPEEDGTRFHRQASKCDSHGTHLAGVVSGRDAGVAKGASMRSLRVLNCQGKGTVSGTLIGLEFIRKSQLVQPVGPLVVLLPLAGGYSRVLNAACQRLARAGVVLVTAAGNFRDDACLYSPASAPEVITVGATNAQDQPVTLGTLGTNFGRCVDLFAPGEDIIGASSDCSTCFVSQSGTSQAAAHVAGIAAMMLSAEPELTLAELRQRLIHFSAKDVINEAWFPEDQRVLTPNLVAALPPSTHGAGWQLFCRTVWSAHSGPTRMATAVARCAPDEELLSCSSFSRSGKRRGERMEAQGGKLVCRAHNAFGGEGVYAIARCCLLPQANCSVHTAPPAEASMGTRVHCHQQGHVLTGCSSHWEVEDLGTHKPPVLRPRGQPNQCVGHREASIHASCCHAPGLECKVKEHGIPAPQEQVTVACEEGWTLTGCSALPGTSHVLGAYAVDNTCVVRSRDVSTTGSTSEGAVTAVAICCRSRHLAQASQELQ", "assay": "TR-FRET competition (PCSK9/EGF(A) assay); competitor EGF(A)-Fc;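 also: proximity signal from anti-His APC on PCSK9 paired with anti-Fc europium on the Fc ligand, read as normalized TR-FRET ratio across compound dilutions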", "note": "“And” between values parts separate entries of the source, which are not always exact repeats. Equal entries are not always repeated. Bridge positions count the residues as written; N and C are the ends. Square brackets hold non-standard residues; d marks the D form. Cit = NC(=O)NCCC[C@H](N)C(=O)O; Aoc = NCCCCCCCC(=O)O; Ava = NCCCCC(=O)O", "data": [{"binder": "B1", "values": [{"measurement": "IC50", "value": "42 µM and > 50 µM"}]}, {"binder": "B2", "values": [{"measurement": "IC50", "value": "> 50", "unit": "µM"}]}, {"binder": "B3", "values": [{"measurement": "IC50", "value": "> 50", "unit": "µM"}]}, {"binder": "B4", "values": [{"measurement": "IC50", "value": "> 50", "unit": "µM"}]}, {"binder": "B5", "values": [{"measurement": "IC50", "value": "> 50", "unit": "µM"}]}, {"binder": "B6", "values": [{"measurement": "IC50", "value": "> 50", "unit": "µM"}]}]}
